Changes are numbered by the printed parent chain. Names may count otherwise. “And” between values parts separate entries of the source, which are not always exact repeats. Equal values may be shown once.
T1: IL-18 receptor (IL-18Rα/IL-18Rβ) on cells (HEK-Blue IL18R reporter cells, NK-92, KG-1) (human, UniProt Q13478 19-541; O95256 20-599)
T1 sequence (looked up) 1: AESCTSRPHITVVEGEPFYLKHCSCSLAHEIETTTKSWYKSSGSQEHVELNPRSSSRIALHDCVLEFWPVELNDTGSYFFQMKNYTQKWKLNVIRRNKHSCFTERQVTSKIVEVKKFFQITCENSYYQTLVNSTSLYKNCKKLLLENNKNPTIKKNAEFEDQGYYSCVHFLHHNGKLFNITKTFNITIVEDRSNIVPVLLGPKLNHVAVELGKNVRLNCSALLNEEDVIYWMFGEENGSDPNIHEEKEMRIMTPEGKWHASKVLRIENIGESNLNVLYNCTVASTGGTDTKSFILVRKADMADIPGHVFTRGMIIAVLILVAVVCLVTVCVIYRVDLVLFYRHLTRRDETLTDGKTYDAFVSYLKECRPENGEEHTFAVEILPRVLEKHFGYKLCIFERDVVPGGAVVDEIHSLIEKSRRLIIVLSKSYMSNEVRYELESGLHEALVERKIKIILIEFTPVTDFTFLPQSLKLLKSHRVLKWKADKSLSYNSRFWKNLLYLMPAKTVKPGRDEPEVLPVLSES
T1 sequence (looked up) 2: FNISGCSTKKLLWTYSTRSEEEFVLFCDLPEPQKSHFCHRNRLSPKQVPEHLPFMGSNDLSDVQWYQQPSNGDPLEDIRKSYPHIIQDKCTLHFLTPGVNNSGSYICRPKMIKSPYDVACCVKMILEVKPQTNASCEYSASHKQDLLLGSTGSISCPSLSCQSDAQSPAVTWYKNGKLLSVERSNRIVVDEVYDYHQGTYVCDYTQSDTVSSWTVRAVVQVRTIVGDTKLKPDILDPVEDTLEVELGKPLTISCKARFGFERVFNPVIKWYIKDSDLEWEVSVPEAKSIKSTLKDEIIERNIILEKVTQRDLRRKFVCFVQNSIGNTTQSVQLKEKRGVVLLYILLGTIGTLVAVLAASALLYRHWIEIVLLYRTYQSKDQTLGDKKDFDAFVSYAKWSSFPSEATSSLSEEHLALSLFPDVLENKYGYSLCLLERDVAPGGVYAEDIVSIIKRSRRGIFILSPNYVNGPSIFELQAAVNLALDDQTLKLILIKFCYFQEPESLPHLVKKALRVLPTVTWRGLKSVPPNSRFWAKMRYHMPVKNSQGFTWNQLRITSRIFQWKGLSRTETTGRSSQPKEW

T2: human IL-18BP-His (human, UniProt O95998 31-194, limits assumed)
T2 construct: also called His-tagged human IL-18BP; not shown: His tag
T2 sequence (looked up): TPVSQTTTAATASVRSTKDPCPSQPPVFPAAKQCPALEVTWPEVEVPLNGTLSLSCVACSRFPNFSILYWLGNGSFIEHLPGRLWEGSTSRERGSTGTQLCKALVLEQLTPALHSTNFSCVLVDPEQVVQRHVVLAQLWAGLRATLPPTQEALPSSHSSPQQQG

B1: IL-18 polypeptide C150 (ligand)
chain: YFGKLESKLSIIRNLNDQVLFIDQGNRPLFEDMADSDARDNAPRTIFIISMYADSQPRGMAVTISVKCEKISTLSAENKIISFKEMNPPDNIKDTKSDIIFFQRSVPGHDNKMQFESSSYEGYFLAAEKERDLFKLILKKEDELGDRSIMFTVQNED
notes: also called V11I, T34A, C38A, K53A, C76A, C127A
B2: IL-18 polypeptide C151 (ligand)
chain: B1 chain with A34T, D35A
notes: also called V11I, D35A, C38A, K53A, C76A, C127A
B3: IL-18 polypeptide C152 (ligand)
chain: B1 chain with A34T, S36A
notes: also called V11I, S36A, C38A, K53A, C76A, C127A
B4: IL-18 polypeptide C153 (ligand)
chain: B1 chain with A34T, D37A
notes: also called V11I, D37A, C38A, K53A, C76A, C127A
B5: IL-18 polypeptide C154 (ligand)
chain: B1 chain with E31A, A34T, D37A
notes: also called V11I, E31A, D37A, C38A, K53A, C76A, C127A
B6: IL-18 polypeptide C155 (ligand)
chain: B1 chain with A34T, D40A
notes: also called V11I, C38A, D40A, K53A, C76A, C127A
B7: IL-18 polypeptide C156 (ligand)
chain: B1 chain with A34T, N41A
notes: also called V11I, C38A, N41A, K53A, C76A, C127A
B8: IL-18 polypeptide C157 (ligand)
chain: B1 chain with A34T, D132A
notes: also called V11I, C38A, K53A, C76A, C127A, D132A
B9: IL-18 polypeptide C158 (ligand)
chain: B1 chain with A34T, G108A
notes: also called V11I, C38A, K53A, C76A, G108A, C127A
B10: IL-18 polypeptide C159 (ligand)
chain: B1 chain with A34T, H109A
notes: also called V11I, C38A, K53A, C76A, H109A, C127A
B11: IL-18 polypeptide C160 (ligand)
chain: B1 chain with A34T, D110A
notes: also called V11I, C38A, K53A, C76A, D110A, C127A
B12: IL-18 polypeptide C161 (ligand)
chain: B1 chain with K8R, A34T, A53K, Q103E
notes: also called K8R, V11I, C38A, C76A, Q103E, C127A
B13: IL-18 polypeptide C162 (ligand)
chain: B1 chain with K8E, A34T, A53K, Q103R
notes: also called K8E, V11I, C38A, C76A, Q103R, C127A
B14: IL-18 polypeptide C163 (ligand)
chain: B1 chain with A34T, A53K, Q103K
notes: also called V11I, C38A, C76A, Q103K, C127A
B15: IL-18 polypeptide C164 (ligand)
chain: B1 chain with A34T, A53K, S55H
notes: also called V11I, C38A, S55H, C76A, C127A
B16: IL-18 polypeptide C165 (ligand)
chain: B1 chain with A34T, A53K, S55R
notes: also called V11I, C38A, S55R, C76A, C127A
B17: IL-18 polypeptide C166 (ligand)
chain: B1 chain with A34T, A53K, S55T
notes: also called V11I, C38A, S55T, C76A, C127A
B18: IL-18 polypeptide C167 (ligand)
chain: B1 chain with A34T, A53K, S105I
notes: also called V11I, C38A, C76A, S105I, C127A
B19: IL-18 polypeptide C168 (ligand)
chain: B1 chain with A34T, A53K, S105K
notes: also called V11I, C38A, C76A, S105K, C127A
B20: IL-18 polypeptide of SEQ ID NO: 42 (E06K, K53A, S55A, T63A) (ligand)
chain: B1 chain with E6K, I11V, A34T, A38C, S55A, T63A, A76C, A127C
B21: IL-18 polypeptide of SEQ ID NO: 50 (E06K, K53A, T63A) (ligand)
chain: B1 chain with E6K, I11V, A34T, A38C, T63A, A76C, A127C
B22: IL-18 polypeptide of SEQ ID NO: 54 (E06K, K53A, C38S, C68S, C76S, C127S, K70C) (ligand)
chain: B1 chain with E6K, I11V, A34T, A38S, C68S, K70C, A76S, A127S
B23: IL-18 polypeptide of SEQ ID NO: 57 (E6K, C38S, K53A) (ligand)
chain: B1 chain with E6K, I11V, A34T, A38S, A76C, A127C
B24: IL-18 polypeptide of SEQ ID NO: 59 (E6K, C38A, K53A) (ligand)
chain: B1 chain with E6K, I11V, A34T, A76C, A127C
B25: IL-18 polypeptide of SEQ ID NO: 60 (E6K, C38Q, K53A) (ligand)
chain: B1 chain with E6K, I11V, A34T, A38Q, A76C, A127C
B26: IL-18 polypeptide of SEQ ID NO: 62 (E6K, C38A, K53A, C127A) (ligand)
chain: B1 chain with E6K, I11V, A34T, A76C
B27: Composition E (LZM-009 conjugated to IL-18 polypeptide of SEQ ID NO: 60) (other)
VH: QVQLVQSGAEVKKPGASVKVSCKASGYTFTSYYMYWVRQAPGQGLEWMGGVNPSNGGTNFNEKFKSRVTITADKSTSTAYMELSSLRSEDTAVYYCARRDYRYDMGFDYWGQGTTVTVSS
VL: EIVLTQSPATLSLSPGERATISCRASKGVSTSGYSYLHWYQQKPGQAPRLLIYLASYLESGVPARFSGSGSGTDFTLTISSLEPEDFATYYCQHSRELPLTFGTGTKVEIK
chain: B1 chain with E6K, I11V, A34T, A38Q, A76C, A127C
modifications: chemical linker to the antibody; chemical linker to IL-18

Biological target: T1, IL-18 receptor (IL-18Rα/IL-18Rβ) on …
Assay: cell-based or functional assay

Binder	EC50, HEK-Blue IL18R reporter cells
B1	0.0007 nM
B2	0.0131 nM
B3	0.00025 nM
B4	0.0141 nM
B5	0.0119 nM
B6	0.00052 nM
B7	0.0117 nM
B8	0.00195 nM
B9	0.0156 nM
B10	0.0195 nM
B11	0.00202 nM
B12	0.00201 nM
B13	0.0023 nM
B14	0.0015 nM
B15	0.00314 nM
B16	0.00191 nM
B17	0.00473 nM
B18	0.00537 nM
B19	0.00773 nM
B20	0.00079 nM
B21	0.00177 nM
B22	0.00912 nM
B23	0.00086 nM and 0.00053 nM
B24	0.000268 nM
B25	0.000203 nM
B26	0.00017 nM

Biological target: T1, IL-18 receptor (IL-18Rα/IL-18Rβ) on …
Assay: cell-based or functional assay
Remark: another data set of the same source

Binder	EC50, IFNγ stimulation, NK92 cells
B1	0.015 nM
B2	0.061 nM
B3	0.033 nM
B4	0.175 nM
B5	0.062 nM
B6	0.067 nM
B7	0.558 nM
B8	0.056 nM
B9	0.073 nM
B10	0.123 nM
B11	0.028 nM
B12	0.057 nM
B13	0.061 nM
B14	0.093 nM
B15	0.414 nM
B16	0.176 nM
B17	0.098 nM
B18	0.103 nM
B19	0.098 nM
B20	0.144 nM
B21	0.0268 nM
B22	0.962 nM
B23	0.045 nM
B24	0.015 nM
B25	0.006 nM
B26	0.026 nM

Biological target: T2, human IL-18BP-His
Assay: AlphaLISA of free IL-18BP
Description: The plate is incubated further for 1 hr at room temperature. Under subdued light, 12.5 µL of 2× streptavidin (SA) donor beads are pipetted into each well, and the wells are incubated with shaking for an additional 30 min at room temperature. The AlphaLisa signal is then measured on an Enspire plate reader with 680 and 615 nm as excitation and emission wavelengths, respectively. The dissociation constant (K_D) is calculated based on a variable slope, four parameter analysis using GraphPad PRISM software.

Binder	Kd
B1	1.24 nM
B2	2.88 nM
B3	1.12 nM
B4	4.55 nM
B5	2.12 nM
B6	0.74 nM
B7	18.5 nM
B8	13.7 nM
B9	1.24 nM
B10	0.55 nM
B11	0.71 nM
B12	0.06 nM
B13	0.85 nM
B14	0.05 nM
B15	0.08 nM
B16	0.15 nM
B17	0.02 nM
B18	0.04 nM
B19	0.05 nM
B20	822 nM
B21	340 nM
B22	446 nM
B23	50.2 nM
B24	36 nM
B25	24.8 nM
B26	69.6 nM

Biological target: T1, IL-18 receptor (IL-18Rα/IL-18Rβ) on …
Assay: cell-based or functional assay
Remark: another data set of the same source

Binder	EC50, IFNγ secretion, NK92 cells
B25	0.008 nM
B27	0.056 nM
